Test results: patent US20260098059A1 (ENDOMET BIOSCIENCES, published 2026)
“And” between values parts separate entries of the source, which are not always exact repeats. Equal values may be shown once. Where no end group is shown, it is not given here. [ ]: non-standard residue; d: D form. αMeW = C[C@](N)(Cc1c[nH]c2ccccc12)C(=O)O; αMeF = C[C@](N)(Cc1ccccc1)C(=O)O; 2Pal = N[C@@H](Cc1ccccn1)C(=O)O; αMeV = CC(C)[C@](C)(N)C(=O)O; αMeS = C[C@](N)(CO)C(=O)O

B1: SEQ ID NO: 164 (peptide)
peptide: LWFLICFWG
HELM: PEPTIDE1{[Nle].W.F.L.I.C.F.W.G}$$$$V2.0
SMILES: CCCC[C@H](N)C(=O)N[C@@H](Cc1c[nH]c2ccccc12)C(=O)N[C@@H](Cc1ccccc1)C(=O)N[C@@H](CC(C)C)C(=O)N[C@H](C(=O)N[C@@H](CS)C(=O)N[C@@H](Cc1ccccc1)C(=O)N[C@@H](Cc1c[nH]c2ccccc12)C(=O)NCC(=O)O)[C@@H](C)CC
B2: SEQ ID NO: 182 (peptide)
peptide: KWILISFWE
HELM: PEPTIDE1{K.W.I.L.I.S.F.W.E}$PEPTIDE1,PEPTIDE1,1:R3-9:R3$$$V2.0
SMILES: CC[C@H](C)[C@@H]1NC(=O)[C@H](CC(C)C)NC(=O)[C@H]([C@@H](C)CC)NC(=O)[C@H](Cc2c[nH]c3ccccc23)NC(=O)[C@@H](N)CCCCNC(=O)CC[C@@H](C(=O)O)NC(=O)[C@H](Cc2c[nH]c3ccccc23)NC(=O)[C@H](Cc2ccccc2)NC(=O)[C@H](CO)NC1=O
B3: SEQ ID NO: 185 (peptide)
peptide: KWFLICFWE
HELM: PEPTIDE1{[ac].K.W.F.L.I.C.F.W.E}$PEPTIDE1,PEPTIDE1,2:R3-10:R3$$$V2.0
SMILES: CC[C@H](C)[C@@H]1NC(=O)[C@H](CC(C)C)NC(=O)[C@H](Cc2ccccc2)NC(=O)[C@H](Cc2c[nH]c3ccccc23)NC(=O)[C@@H](NC(C)=O)CCCCNC(=O)CC[C@@H](C(=O)O)NC(=O)[C@H](Cc2c[nH]c3ccccc23)NC(=O)[C@H](Cc2ccccc2)NC(=O)[C@H](CS)NC1=O
B4: SEQ ID NO: 188 (peptide)
peptide: KWILISAWE
HELM: PEPTIDE1{[ac].K.W.I.L.I.S.A.W.E}$PEPTIDE1,PEPTIDE1,2:R3-10:R3$$$V2.0
SMILES: CC[C@H](C)[C@@H]1NC(=O)[C@H](CC(C)C)NC(=O)[C@H]([C@@H](C)CC)NC(=O)[C@H](Cc2c[nH]c3ccccc23)NC(=O)[C@@H](NC(C)=O)CCCCNC(=O)CC[C@@H](C(=O)O)NC(=O)[C@H](Cc2c[nH]c3ccccc23)NC(=O)[C@H](C)NC(=O)[C@H](CO)NC1=O
B5: SEQ ID NO: 184 (peptide)
peptide: KWILISAWE
HELM: PEPTIDE1{K.W.I.L.I.S.A.W.E}$PEPTIDE1,PEPTIDE1,1:R3-9:R3$$$V2.0
SMILES: CC[C@H](C)[C@@H]1NC(=O)[C@H](CC(C)C)NC(=O)[C@H]([C@@H](C)CC)NC(=O)[C@H](Cc2c[nH]c3ccccc23)NC(=O)[C@@H](N)CCCCNC(=O)CC[C@@H](C(=O)O)NC(=O)[C@H](Cc2c[nH]c3ccccc23)NC(=O)[C@H](C)NC(=O)[C@H](CO)NC1=O
B6: SEQ ID NO: 111 (peptide)
peptide: WFLISFW
HELM: PEPTIDE1{[meW].F.L.I.S.F.W}$$$$V2.0
SMILES: CC[C@H](C)[C@H](NC(=O)[C@H](CC(C)C)NC(=O)[C@H](Cc1ccccc1)NC(=O)[C@H](Cc1c[nH]c2ccccc12)NC)C(=O)N[C@@H](CO)C(=O)N[C@@H](Cc1ccccc1)C(=O)N[C@@H](Cc1c[nH]c2ccccc12)C(=O)O
B7: SEQ ID NO: 186 (peptide)
peptide: KMWFLICFWE
HELM: PEPTIDE1{[ac].K.M.W.F.L.I.C.F.W.E}$PEPTIDE1,PEPTIDE1,2:R3-11:R3$$$V2.0
SMILES: CC[C@H](C)[C@@H]1NC(=O)[C@H](CC(C)C)NC(=O)[C@H](Cc2ccccc2)NC(=O)[C@H](Cc2c[nH]c3ccccc23)NC(=O)[C@H](CCSC)NC(=O)[C@@H](NC(C)=O)CCCCNC(=O)CC[C@@H](C(=O)O)NC(=O)[C@H](Cc2c[nH]c3ccccc23)NC(=O)[C@H](Cc2ccccc2)NC(=O)[C@H](CS)NC1=O
B8: SEQ ID NO: 36 (peptide)
peptide: WWESILDEHVQRVWG
HELM: PEPTIDE1{W.[meW].E.S.I.L.D.E.H.V.Q.R.V.W.G.[am]}$$$$V2.0
SMILES: CC[C@H](C)[C@H](NC(=O)[C@H](CO)NC(=O)[C@H](CCC(=O)O)NC(=O)[C@H](Cc1c[nH]c2ccccc12)N(C)C(=O)[C@@H](N)Cc1c[nH]c2ccccc12)C(=O)N[C@@H](CC(C)C)C(=O)N[C@@H](CC(=O)O)C(=O)N[C@@H](CCC(=O)O)C(=O)N[C@@H](Cc1c[nH]cn1)C(=O)N[C@H](C(=O)N[C@@H](CCC(N)=O)C(=O)N[C@@H](CCCNC(=N)N)C(=O)N[C@H](C(=O)N[C@@H](Cc1c[nH]c2ccccc12)C(=O)NCC(N)=O)C(C)C)C(C)C

Each binder was assayed against T1, β-catenin (UniProt P35222 134-665, limits assumed, biotinylated in the SPR and plate assays) (assay: competitive FP).
T1 construct: also called beta catenin; biotinylated β-catenin
T1 sequence (looked up): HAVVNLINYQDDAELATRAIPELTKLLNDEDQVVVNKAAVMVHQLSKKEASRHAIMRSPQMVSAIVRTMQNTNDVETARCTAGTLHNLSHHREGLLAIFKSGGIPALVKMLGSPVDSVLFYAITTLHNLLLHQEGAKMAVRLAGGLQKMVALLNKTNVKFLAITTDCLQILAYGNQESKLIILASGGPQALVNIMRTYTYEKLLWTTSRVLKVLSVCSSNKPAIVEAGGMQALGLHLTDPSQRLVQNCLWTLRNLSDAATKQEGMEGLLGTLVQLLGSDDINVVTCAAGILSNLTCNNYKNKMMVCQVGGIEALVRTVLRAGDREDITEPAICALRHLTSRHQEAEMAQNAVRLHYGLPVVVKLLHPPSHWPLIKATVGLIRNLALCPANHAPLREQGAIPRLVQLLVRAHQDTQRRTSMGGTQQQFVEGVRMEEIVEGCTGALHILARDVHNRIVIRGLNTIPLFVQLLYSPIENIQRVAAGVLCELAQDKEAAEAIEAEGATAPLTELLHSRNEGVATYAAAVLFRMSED
Method in brief: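 Competitive fluorescence polarization with inhibitor peptide serially diluted from 10 nM to 30 uM; polarization read at 470 nm excitation, 520 nm emission. Experiments performed three times.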

Row | Binder | Kd
1 | H-MWFLICFWG-OH [SEQ ID NO: 42] | ≤ 0.4 µM
2 | H-MW[αMeF]LICFWG-OH [SEQ ID NO: 131] | ≤ 0.4 µM
3 | H-MWILIC[αMeF]WG-OH [SEQ ID NO: 121] | ≤ 0.4 µM
4 | H-MWFLIC[2Pal]WG-OH [SEQ ID NO: 148] | > 0.4 µM and ≤ 1 µM
5 | B1 | > 0.4 µM and ≤ 1 µM
6 | H-DWFLICFWG-OH [SEQ ID NO: 142] | ≤ 0.4 µM
7 | H-MWILISSWG-OH [SEQ ID NO: 129] | > 0.4 µM and ≤ 1 µM
8 | H-HWILISFWG-OH [SEQ ID NO: 126] | ≤ 0.4 µM
9 | B2 | > 0.4 µM and ≤ 1 µM
10 | H-MWILIS[αMeF]WG-OH [SEQ ID NO: 128] | > 0.4 µM and ≤ 1 µM
11 | H-WWILISFWG-OH [SEQ ID NO: 127] | > 0.4 µM and ≤ 1 µM
12 | Ac-MWILISFWG-OH [SEQ ID NO: 165] | ≤ 0.4 µM
13 | B3 | ≤ 0.4 µM
14 | H-KWILISFWG-OH [SEQ ID NO: 125] | > 0.4 µM and ≤ 1 µM
15 | H-MWFLIKFYG-OH [SEQ ID NO: 151] | > 0.4 µM and ≤ 1 µM
16 | H-MWILISFWG-OH [SEQ ID NO: 43] | > 0.4 µM and ≤ 1 µM

Row | Binder | Kd
17 | H-M[αMeW]ILICFWG-OH [SEQ ID NO: 132] | ≤ 0.4 µM
18 | H-MWILI[dT]FWG-OH [SEQ ID NO: 137] | > 0.4 µM and ≤ 1 µM
19 | H-MWILICFWG-OH [SEQ ID NO: 116] | > 0.4 µM and ≤ 1 µM
20 | H-MWILI[αMeS]FWG-OH [SEQ ID NO: 136] | > 0.4 µM and ≤ 1 µM
21 | B4 | > 10 µM and ≤ 30 µM
22 | H-MWFLIQFYG-OH [SEQ ID NO: 149] | > 0.4 µM and ≤ 1 µM
23 | B5 | > 10 µM and ≤ 30 µM
24 | B6 | > 0.4 µM and ≤ 1 µM
25 | H-MWFLISFW-OH [SEQ ID NO: 112] | > 0.4 µM and ≤ 1 µM
26 | MWFLISFWG-NH2 [SEQ ID NO: 108] | > 0.4 µM and ≤ 1 µM
27 | H-KMWILISFWG-OH [SEQ ID NO: 122] | ≤ 0.4 µM
28 | H-HMWILISFWG-OH [SEQ ID NO: 123] | ≤ 0.4 µM
29 | B7 | > 0.4 µM and ≤ 1 µM
30 | B8 | ≤ 0.4 µM
31 | H-MWESILDEH[αMeV]QRVWG-NH2 [SEQ ID NO: 34] | ≤ 0.4 µM
32 | H-MWE[αMeS]ILDEHVQRVWG-NH2 [SEQ ID NO: 35] | ≤ 0.4 µM

Each binder was assayed against T1, β-catenin (assay: cell-based or functional assay).

Row | Binder | Wnt Reporter EC50
33 | H-MWFLICFWG-OH [SEQ ID NO: 42] | ≤ 7.5 µM
34 | H-MW[αMeF]LICFWG-OH [SEQ ID NO: 131] | > 7.5 µM and ≤ 15 µM
35 | H-MWILIC[αMeF]WG-OH [SEQ ID NO: 121] | ≤ 7.5 µM
36 | H-MWFLIC[2Pal]WG-OH [SEQ ID NO: 148] | > 7.5 µM and ≤ 15 µM
37 | B1 | ≤ 7.5 µM
38 | H-DWFLICFWG-OH [SEQ ID NO: 142] | ≤ 7.5 µM
39 | H-MWILISSWG-OH [SEQ ID NO: 129] | ≤ 7.5 µM
40 | H-HWILISFWG-OH [SEQ ID NO: 126] | ≤ 7.5 µM
41 | B2 | > 22.5 µM and ≤ 30 µM
42 | H-MWILIS[αMeF]WG-OH [SEQ ID NO: 128] | > 7.5 µM and ≤ 15 µM
43 | H-WWILISFWG-OH [SEQ ID NO: 127] | > 7.5 µM and ≤ 15 µM
44 | Ac-MWILISFWG-OH [SEQ ID NO: 165] | ≤ 7.5 µM
45 | B3 | > 22.5 µM and ≤ 30 µM
46 | H-KWILISFWG-OH [SEQ ID NO: 125] | > 22.5 µM and ≤ 30 µM
47 | H-MWFLIKFYG-OH [SEQ ID NO: 151] | > 15 µM and ≤ 22.5 µM
48 | H-MWILISFWG-OH [SEQ ID NO: 43] | ≤ 7.5 µM

Row | Binder | Wnt Reporter EC50
49 | H-M[αMeW]ILICFWG-OH [SEQ ID NO: 132] | > 7.5 µM and ≤ 15 µM
50 | H-MWILI[dT]FWG-OH [SEQ ID NO: 137] | > 15 µM and ≤ 22.5 µM
51 | H-MWILICFWG-OH [SEQ ID NO: 116] | ≤ 7.5 µM
52 | H-MWILI[αMeS]FWG-OH [SEQ ID NO: 136] | > 30 µM
53 | B4 | ≤ 7.5 µM
54 | H-MWFLIQFYG-OH [SEQ ID NO: 149] | > 7.5 µM and ≤ 15 µM
55 | B5 | ≤ 7.5 µM
56 | B6 | > 7.5 µM and ≤ 15 µM
57 | H-MWFLISFW-OH [SEQ ID NO: 112] | ≤ 7.5 µM
58 | MWFLISFWG-NH2 [SEQ ID NO: 108] | > 7.5 µM and ≤ 15 µM
59 | H-KMWILISFWG-OH [SEQ ID NO: 122] | > 22.5 µM and ≤ 30 µM
60 | H-HMWILISFWG-OH [SEQ ID NO: 123] | ≤ 7.5 µM
61 | B7 | > 30 µM
62 | B8 | > 30 µM
63 | H-MWESILDEH[αMeV]QRVWG-NH2 [SEQ ID NO: 34] | > 30 µM
64 | H-MWE[αMeS]ILDEHVQRVWG-NH2 [SEQ ID NO: 35] | > 30 µM
